Biological target: T1, rSAMD9 158-389 (tRNase domain) (Oryctolagus cuniculus (European rabbit; …, UniProt G1U2M9 158-389)
T1 sequence: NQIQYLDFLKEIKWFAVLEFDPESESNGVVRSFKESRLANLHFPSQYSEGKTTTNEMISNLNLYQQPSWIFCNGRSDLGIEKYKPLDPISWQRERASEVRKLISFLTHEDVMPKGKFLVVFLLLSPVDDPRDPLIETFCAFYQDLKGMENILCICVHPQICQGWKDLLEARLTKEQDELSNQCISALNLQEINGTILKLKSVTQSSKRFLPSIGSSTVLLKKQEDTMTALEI
Test: EMSA; stable complex predominant at 2:1 protein:dsDNA; no DNA density seen in the crystal; EMSA on 0.8% native agarose gel, EtBr then Coomassie stain; buffer, salt, pH and temperature not given (as in earlier paper)
Settings: protein: recombinant; tags: 6xHis-SUMO removed by Ulp1; chain copies: 2; blunt

B1: 26-nt dsDNA (dsDNA)
DNA 1: TATTCAAATTAATGATTTATTCAATT
DNA 2: AATTGAATAAATCATTAATTTGAATA
binding result: binds
